For one substance, affinity, fold lower than the human β2-microglobulin results are on record in patent publication WO1994018227A2.

This assay deals with natural affinity purified heavy chain class I K d molecules. Briefly: binding inhibition experiment with radiolabelled ligands.

With Recombinant murine β2-microglobulin, the affinity, fold lower than the human β2-microglobulin came to 5 times lower.
